Data taken from article PMC6848165, “C1R Mutations Trigger Constitutive Complement 1 Activation in Periodontal Ehlers-Danlos Syndrome” (Frontiers in Immunology, 2019).

B1: C1r p.S654A (enzymatically inactive proenzyme C1r 'WT') (enzyme, human, UniProt P00736 18-705, looked up)
chain: SIPIPQKLFGEVTSPLFPKPYPNNFETTTVITVPTGYRVKLVFQQFDLEPSEGCFYDYVKISADKKSLGRFCGQLGSPLGNPPGKKEFMSQGNKMLLTFHTDFSNEENGTIMFYKGFLAYYQAVDLDECASRSKSGEEDPQPQCQHLCHNYVGGYFCSCRPGYELQEDTHSCQAECSSELYTEASGYISSLEYPRSYPPDLRCNYSIRVERGLTLHLKFLEPFDIDDHQQVHCPYDQLQIYANGKNIGEFCGKQRPPDLDTSSNAVDLLFFTDESGDSRGWKLRYTTEIIKCPQPKTLDEFTIIQNLQPQYQFRDYFIATCKQGYQLIEGNQVLHSFTAVCQDDGTWHRAMPRCKIKDCGQPRNLPNGDFRYTTTMGVNTYKARIQYYCHEPYYKMQTRAGSRESEQGVYTCTAQGIWKNEQKGEKIPRCLPVCGKPVNPVEQRQRIIGGQKAKMGNFPWQVFTNIHGRGGGALLGDRWILTAAHTLYPKEHEAQSNASLDVFLGHTNVEELMKLGNHPIRRVSVHPDYRQDESYNFEGDIALLELENSVTLGPNLLPICLPDNDTFYDLGLMGYVSGFGVMEEKIAHDLRFVRLPVANPQACENWLRGKNRMDVFSQNMFCAGHPSLKQDACQGDAGGVFAVRDPNTDRWVATGIVSWGIGCSRGYGFYTKVLNYVDWIKKEMEEED
notes: also called C1r WT with additional p.S654A mutation; source: 293-F cells co-transfected with C1s, purified as part of the tetramer as described (19)
B2: C1r p.(D290G) with additional p.S654A mutation (enzyme, human, UniProt P00736 18-705, looked up)
chain: SIPIPQKLFGEVTSPLFPKPYPNNFETTTVITVPTGYRVKLVFQQFDLEPSEGCFYDYVKISADKKSLGRFCGQLGSPLGNPPGKKEFMSQGNKMLLTFHTDFSNEENGTIMFYKGFLAYYQAVDLDECASRSKSGEEDPQPQCQHLCHNYVGGYFCSCRPGYELQEDTHSCQAECSSELYTEASGYISSLEYPRSYPPDLRCNYSIRVERGLTLHLKFLEPFDIDDHQQVHCPYDQLQIYANGKNIGEFCGKQRPPDLDTSSNAVDLLFFTGESGDSRGWKLRYTTEIIKCPQPKTLDEFTIIQNLQPQYQFRDYFIATCKQGYQLIEGNQVLHSFTAVCQDDGTWHRAMPRCKIKDCGQPRNLPNGDFRYTTTMGVNTYKARIQYYCHEPYYKMQTRAGSRESEQGVYTCTAQGIWKNEQKGEKIPRCLPVCGKPVNPVEQRQRIIGGQKAKMGNFPWQVFTNIHGRGGGALLGDRWILTAAHTLYPKEHEAQSNASLDVFLGHTNVEELMKLGNHPIRRVSVHPDYRQDESYNFEGDIALLELENSVTLGPNLLPICLPDNDTFYDLGLMGYVSGFGVMEEKIAHDLRFVRLPVANPQACENWLRGKNRMDVFSQNMFCAGHPSLKQDACQGDAGGVFAVRDPNTDRWVATGIVSWGIGCSRGYGFYTKVLNYVDWIKKEMEEED
notes: also called c.869A>G; source: 293-F cells co-transfected with C1s, purified as part of the tetramer as described (19)

Target: the molecule itself
Assay: SEC; purified tetramers on Superose 6 Increase 10/300 GL, 50 mM Tris, 150 mM NaCl, pH 7.4, 5 mM EDTA, 0.5 ml/min

| Protein | stoichiometry N |
| --- | --- |
| B1 | 2 |
| B2 | 2 |
